Patent US20140086913A1 (Gilead, published 2014)

Target: T1, mouse DDR1 stably expressed on HEK293 cells (mouse, UniProt Q03146 20-911)
T1 construct: whole, on cells; also called murine DDR1
T1 sequence (looked up): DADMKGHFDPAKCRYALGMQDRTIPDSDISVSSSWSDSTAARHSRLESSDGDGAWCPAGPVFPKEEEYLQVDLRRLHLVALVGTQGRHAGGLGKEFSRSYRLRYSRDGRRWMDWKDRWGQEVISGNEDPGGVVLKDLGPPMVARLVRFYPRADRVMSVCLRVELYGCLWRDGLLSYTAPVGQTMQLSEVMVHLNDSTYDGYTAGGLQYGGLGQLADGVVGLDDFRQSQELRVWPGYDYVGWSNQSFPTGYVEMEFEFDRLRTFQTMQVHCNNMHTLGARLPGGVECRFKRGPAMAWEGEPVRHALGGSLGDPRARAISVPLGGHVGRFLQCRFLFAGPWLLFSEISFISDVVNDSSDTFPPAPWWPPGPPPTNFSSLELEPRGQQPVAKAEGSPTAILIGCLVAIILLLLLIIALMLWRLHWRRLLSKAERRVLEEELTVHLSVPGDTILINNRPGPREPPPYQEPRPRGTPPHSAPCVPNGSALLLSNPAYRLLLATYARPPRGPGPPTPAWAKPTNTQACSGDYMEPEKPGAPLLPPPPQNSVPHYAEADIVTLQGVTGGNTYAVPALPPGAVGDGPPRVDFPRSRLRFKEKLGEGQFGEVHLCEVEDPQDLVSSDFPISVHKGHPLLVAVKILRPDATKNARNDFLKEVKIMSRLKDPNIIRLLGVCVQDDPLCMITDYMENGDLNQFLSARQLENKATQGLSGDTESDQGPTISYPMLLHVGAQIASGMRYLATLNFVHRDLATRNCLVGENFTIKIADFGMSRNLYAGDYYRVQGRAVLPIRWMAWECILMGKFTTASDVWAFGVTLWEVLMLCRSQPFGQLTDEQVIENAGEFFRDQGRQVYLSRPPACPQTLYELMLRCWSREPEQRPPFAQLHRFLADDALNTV
Test: flow cytometry on transfected HEK293 cells

- binding result: binds
B1: AB2041 (antibody, V domains shown)
VH: QVQLHQSGSELAKPGASVKMSCKASGYIFTTYWIHWLKQRPGQGLEWIGFINPDTDYTEYNQKFKDKATLTADKSSNTAYVQLSSLTSEDSAVYYCARGNYGYDGLVYWGLGTLVTVSA
VL: SIVMTQTPKFLLVSAGDRVTITCKASQSVSTDVAWYQQKPGQSPKLLIYYASNRYTGVPDRFTGSGYGTDFTFTISTVQAEDLAVYFCQQDYNSYTFGGGTKLEIKR
notes: mouse hybridoma mAb
